Assay results: publication PMC12838526

Molecular target: F-actin (polymerized rabbit skeletal muscle actin) (rabbit) (UniProt P68135)
Test: co-sedimentation

| percent co-sedimented with F-actin [%] | percent co-sedimented with F-actin, αcat ABD added [%] | Substance |
| --- | --- | --- |
| 32 | – | GST-Cno H+C+FAB-His6 (Cno residues 1560-2051) (domain or fragment) |
| 55 | 76 | Cno FAB peptide (residues 1967-2051), full-length form (domain or fragment) |
